Experimental findings from patent publication US20230183371A1 (University of Texas, published 2023) are described below.

The target of assay [1] is T1, human CD79b expressed on cells (human, UniProt P40259 29-229).
T1 construct: whole, on cells; also called human CD79b expressed on mouse fibroblast L cells; CD79b on B cell lymphoma cell lines (Daudi, SUDHL6)
T1 sequence (looked up): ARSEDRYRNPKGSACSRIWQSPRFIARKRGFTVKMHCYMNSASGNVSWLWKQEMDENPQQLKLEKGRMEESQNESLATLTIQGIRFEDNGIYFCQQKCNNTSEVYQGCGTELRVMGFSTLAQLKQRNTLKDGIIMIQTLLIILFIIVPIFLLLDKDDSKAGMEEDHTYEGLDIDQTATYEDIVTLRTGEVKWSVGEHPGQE
The assay can be described thus: ELISA on mouse fibroblast L cells expressing human CD79b. The text has this:
Binding of anti-CD79b antibodies to human CD79b: Full length anti-CD79b monoclonal antibodies (clones 5B and 28B) isolated from hybridoma supernatants were used to test binding to human CD79b expressed on mouse fibroblast L cells by ELISA (FIG. 7).
A general note: An ELISA detects its analyte on a solid surface through an enzyme-linked reagent.

Assay [2] concerns the target T2, recombinant human CD79b protein (human, UniProt P40259 29-159, limits assumed).
T2 sequence (looked up): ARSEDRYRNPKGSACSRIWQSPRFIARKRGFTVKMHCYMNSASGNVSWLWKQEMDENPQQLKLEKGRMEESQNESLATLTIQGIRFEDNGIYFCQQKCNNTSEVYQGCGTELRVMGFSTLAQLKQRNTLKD
In words: Octet assay. On the technique in general: In BLI a coated tip is dipped into the sample, and binding shifts an interference pattern.

For assay [3], the target named is T2, recombinant human CD79b protein. The assay can be described thus: ELISA on recombinant human CD79b protein.
For assay [4] the target is unchanged. The assay can be described thus: EC50 column of the drawn table; the table does not name the assay, the text gives an ELISA on recombinant human CD79b protein (FIG. 2B).

Positions count from the first letter of the chain named.

B1: anti-CD79b monoclonal antibody clone 5B (antibody, V domains shown)
VH: EVQLQESGAELVKPGASVKMSCKASGYTFTSYWMHWVKQRPGQGLEWIGAIDPSDSYTGYNQKFKGKATLTVDTSSSTAYMHLSSLTSEDSAVYFCTRSYYGNSWFDYWGQGTLVTVSA
VL: DIVLTQSPASLAVSLGQRATISCKASQSVDYEGDSYMNWYQQKPGQPPKLLIYAASNLESGIPARFSGSGSGTDFTLNIHPVEEEDAATYHCQQSNEDPFTFGGGTKLEIK
notes: Full length monoclonal antibody isolated from hybridoma supernatant
As usually defined, the EC50 is the concentration at which the effect is half-maximal. Usually EC50 (read off the curve) stands for the concentration giving half of the maximal effect. B1: in assay [1], the EC50 amounted to 0.0409 µg/mL and the “EC50 (read off the curve)” value is roughly 0.04 µg/mL.

B2: anti-CD79b monoclonal antibody clone 28B (antibody, V domains shown)
VH: B1 VH with D107A
VL: B1 VL with E32D, A54V, H91Y, G104S, K111N
notes: as for B1
As to B2, in assay [1], the midpoint of the response, the EC50, lay at 0.0252 µg/mL and the “EC50 (read off the curve)” value was roughly 0.02 µg/mL.

B3: anti-human CD79b monoclonal antibody clone 14 (IgG1) (antibody, V domains shown)
VH: EVQLQESGPELKKPGETVKISCKASGYTFTDYSMHWVKQAPGKGLKWMGWINTETGEPTYADDFKGRFAFSLETSASTAYLQINNLKNDDTATYFCNMDSWGQGTSVTVSS
VL: QIVLTQSPAIMSASPGEKVTMTCSASSSVSYMWWYHQKPGSSPRLLIFDTSNLASGVPVRFSGSGSGTSYSLTISRMEAEDAATYYCQQWTSYPYTFGGGTKLEIK
As usually defined, the Kd is the free concentration of one partner at which half of the binding sites on the other are occupied at equilibrium, for simple one-to-one binding. As for B3, in assay [2], the Kd was 1.44 nM. Also, the “EC50 (read off the curve)” value in assay [3] is roughly 0.02 µg/mL. Also, the EC50 in assay [4] was found to be 0.0162 µg/mL.

B4: anti-human CD79b monoclonal antibody clone 45 (IgG2) (antibody, V domains shown)
VH: EVQLQESGAELVRPGALVKLSCRASGFNIKDYYMHWVKQRPEQGLEWIGWIDPENGNSIYDPKFQGKASITADTSSNTAYLQLSSLTSEDTAVYYCAVDLYYGRGTLVTVSA
VL: NIMMTQSPSSLAVSAGEKVTMRCKSSQSVLYSSNQKNYLAWYQQKPGQSPKLLIYWASTRESGVPDRFTGSGSGTDFTLTISSVQAEDLAVYYCHQFLSSYTFGGGTKLEIK
Regarding B4, in assay [2], the dissociation constant Kd came out at 2 nM. Also, the “EC50 (read off the curve)” value in assay [3] was roughly 0.03 µg/mL. Further, the EC50 in assay [4] amounted to 0.0301 µg/mL.
